Assay results: patent US20230107644A1 (UNIVERSITY OF ROCHESTER, published 2023)

Assays:
Experiment in all cases: cell-based or functional assay
[1] = target: HA (H3) of influenza virus A/Wyoming/3/2003 (influenza A virus A/Wyoming/3/2003 …)
[2] = target: NA (N2) of influenza virus A/Victoria/210/2009 (influenza A virus A/Victoria/210/2009 …)
[3] = target: NA (N2) of influenza virus A/Wyoming/3/2003 (influenza A virus A/Wyoming/3/2003 …)
[4] = target: NA (N2) of influenza virus A/Switzerland/9715283/2013 (influenza A virus …)

B1: 1092C4 hmAb (antibody, V domains shown)
VH: EVQLVQSGAEVKKPGASVKVSCKASGYSFTRYGISWVRQAPGQGLEWMGWISAYTGNTDYAQKFQGRITMTTDTSTSTAYMELRSLRSDDTAVYYCARDLPQGVVILGSYYYGMDVWGQGNTVTVSS
VL: EIVLTQSPGTLSLSPGERATLSCRASQSVTSRYLAWYQQKLGQAPRLLIYGASSRATGIPDRFSGSGSGTDFTLTISSLEPEDLAVYYCQQSGSPRTFGQGTKVEIK
[1]
  NT50: 1.6 µg/mL

B2: 1092E4 hmAb (antibody, V domains shown)
VH: QVQLVQSGAEVKKPGASVKVSCKASGYSFTRYGISWVRQAPGQGLEWMGWISAYTGNTDYAQKFQGRITMTTDTSTSTVYMELRSLRSDDTAVYYCARDHPQGVVILGSYYYGMDVWGQGNTVTVSS
VL: EIVLTQSPGTLSLSPGERATLSCRASQSVTSRYLAWYQQKLGQAPRLLIYGASSRATGIPDRFSGSGSGTDFTLTISSLEPEDFAVYYCQQSGSPRTFGQGTKVEIK
[1]
  NT50: 3.13 µg/mL

B3: 1086G8 hmAb (antibody, V domains shown)
VH: EVQLLESGGGLVQPGGSLRLSCTASGFTFASDAMNWVRQAPGKGLEWVSAISGNGGITYFADSVKGRFTISRDNSKDTLYLQMDSLRAEDTAVYYCAKGVAPSHFNLLTGYYAGHYYFDFWGQGTLVTVSS
VL: EIVMTQSPATLSVSPGERATLSCRASQSVRHNLAWYQHKPGQPPRLLIYGASTRAASVPARFSGSGSGTDFTLTISSLQSEDFAVYYCQQYNHWPPYTFGQGTKLEIK
[1]
  NT50: 0.78 µg/mL

B4: 1122A11 hmAb (antibody, V domains shown)
VH: QVQLVQSGAEVSKPGASVKVSCKASGYSFTSQSLGWVRQAPGQGLEWMGIINPSGGITNYAHKFQGRVTMTRDTSTSTVYMELSSLRSEDTALYYCVRDLSHYNEVGHDRAYYYGMDIWGQGTTVTVSS
VL: SYELIQPPSVSVSPGQTASITCSGDKLGKKYTCWYQQKPGQSPVLVIYQDNKRPSGIPERFSGSNSGNTATLTISGTQAMDEADYYCQAWDSSAVVFGGGTKLTVL
[2]
  NT50: 25 µg/mL
[3]
  NT50: 6.25 µg/mL
[4]
  NT50: 25 µg/mL
